One block for each binder: values may come before it. No end group written: not given here. *: point of attachment. Biotin = O=C1N[C@H]2[C@H](CS[C@H]2CCCCC(=O)*)N1
Columns and labels:
[1] = target: T1, human glycophorin A in the red blood cell membrane (human, UniProt P02724 20-150); assay: SPR, human RBC membranes, Fab
T1 construct: whole, on cells; used for intact RBC, isolated RBC membranes and transfected cells; the assay field tells which; also called GPA; hGPA
T1 sequence (looked up): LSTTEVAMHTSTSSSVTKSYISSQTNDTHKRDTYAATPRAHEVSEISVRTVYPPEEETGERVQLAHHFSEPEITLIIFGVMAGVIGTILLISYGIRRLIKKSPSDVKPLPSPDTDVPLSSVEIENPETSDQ
Protocol: Kinetic analysis of the antibody binding to human red blood cell membranes was also performed using surface plasmon resonance (SPR) using a Biacore instrument. In this assay membranes prepared from human red blood cells were attached to a L1 sensor matrix and antibodies were flowed over the RBC membranes.

[2] = target: T2, Cynomolgus monkey glycophorin A on Cynomolgus monkey red blood cells or red blood cell membranes (Cynomolgus monkey); assay: Fab on intact cyno RBC, unbound Fab by ELISA; 20 min after 200-fold dilution
T2 construct: whole, on cells; also called Cyno RBC; Cynomolgus monkey RBC membranes
Protocol: (§1) The binding of affinity matured Fab antibodies to intact Cynomolgus monkey RBC was measured. Cynomolgus monkey RBC were isolated from fresh anti-coagulated blood by centrifugation through a ficol gradient and washing in PBS buffer. RBC diluted to 1/10th of normal hematocrit were incubated with the Fab at a final concentration of 7 ug/ml for 1 hour at room temperature on a rotating shaker after which a sample was taken and the RBC were pelleted by centrifugation and the supernatant was collected. The remaining RBC suspension was diluted 200-fold in PBS buffer and incubated for a total of 2 hours at room temperature on a rotating shaker and samples were removed at 0, 5 min, 20 min, 1 h and 2 h and the RBC pelleted and the supernatant collected. […] The amount of Fab in the supernatants was then measured using an ELISA assay and the results used to calculate the percentage of the input Fab that was bound to the RBC.

[3] = target: T2, Cynomolgus monkey glycophorin A on …; assay: Fab on intact cyno RBC, unbound Fab by ELISA; 60 min after 200-fold dilution
Protocol: as §1

[4] = target: T2, Cynomolgus monkey glycophorin A on …; assay: Fab on intact cyno RBC, unbound Fab by ELISA; 120 min after 200-fold dilution
Protocol: as §1

[5] = target: T3, GP9 peptide of the human GPA ectodomain (human, not fully specified (N-terminus)); assay: ELISA, Fab 0.5 ug/ml on biotin-peptide on streptavidin plate
T3 peptide: RTVYPPEE
Description: (§2) These peptides were attached to the surface of a streptavidin coated plate via a biotin moiety that was present at the N-terminus of each peptide.

[6] = target: T4, GP8 peptide of the human GPA ectodomain (human, not fully specified (N-terminus)); assay: as above
T4 peptide: VRTVYPPE
Description: as §2

[7] = target: T5, GP10 peptide of the human GPA ectodomain (human, not fully specified (N-terminus)); assay: as above
T5 peptide: TVYPPEEE
Description: as §2

[8] = target: T6, GP15 peptide of the human GPA ectodomain (human, not fully specified (N-terminus)); assay: as above
T6 peptide: EEETGERV
Description: as §2

[9] = target: T7, GP12 peptide of the human GPA ectodomain (human, not fully specified (N-terminus)); assay: as above
T7 peptide: YPPEEETG
Description: as §2

[10] = target: T8, GP11 peptide of the human GPA ectodomain (human, not fully specified (N-terminus)); assay: as above
T8 peptide: VYPPEEET
Description: as §2

[11] = target: T9, GP5 peptide of the human GPA ectodomain (human, N-terminal biotin); assay: as above
T9 construct: Residues 42 to 61 of the human GPA extracellular domain
Description: as §2

[12] = target: T10, GP14 peptide of the human GPA ectodomain (human, not fully specified (N-terminus)); assay: as above
T10 peptide: PEEETGER
Description: as §2

[13] = target: T11, GP7 peptide of the human GPA ectodomain (human, not fully specified (N-terminus)); assay: as above
T11 peptide: SVRTVYPP
Description: as §2

[14] = target: T12, GP16 peptide of the human GPA ectodomain (human, not fully specified (N-terminus)); assay: as above
T12 peptide: EETGERVQ
Description: as §2

[15] = target: T13, GP13 peptide of the human GPA ectodomain (human, not fully specified (N-terminus)); assay: as above
T13 peptide: PPEEETGE
Description: as §2

[16] = target: T14, human glycophorin A on human red blood cells or red blood cell membranes (human, UniProt P02724 20-150); assay: Fab 7 ug/ml on intact human RBC, unbound Fab by ELISA; pre-dilution
T14 construct: whole, on cells; also called hRBC; human RBC membranes
T14 sequence (looked up): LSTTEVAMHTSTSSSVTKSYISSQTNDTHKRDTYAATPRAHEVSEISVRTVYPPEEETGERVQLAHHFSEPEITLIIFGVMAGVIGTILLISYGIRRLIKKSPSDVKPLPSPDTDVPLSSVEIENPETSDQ
Protocol: (§3) The binding of affinity matured Fab antibodies to intact human RBC was also measured. Human RBC were isolated from fresh anti-coagulated normal human blood by centrifugation through a ficol gradient and washing in PBS buffer. RBC diluted to 1/10th of normal hematocrit were incubated with purified Fab antibodies at a final concentration of 7 ug/ml for 1 hour at room temperature on a rotating shaker after which a sample was taken and the RBC were pelleted by centrifugation and the supernatant was collected. The remaining RBC suspension was diluted 200-fold in PBS buffer and incubated for a total of 2 hours at room temperature on a rotating shaker and samples were removed at 0, 5 min, 20 min, 1 h and 2 h and the RBC pelleted and the supernatant collected. The amount of Fab in the supernatants was then measured using an ELISA assay and the results used to calculate the percentage of the input Fab that was bound to the RBC. […] The percentage that remains bound after 200-fold dilution of the RBC suspension is an indication of the overall strength of the binding to human RBC.

[17] = target: T2, Cynomolgus monkey glycophorin A on …; assay: Fab on intact cyno RBC, unbound Fab by ELISA; 0 min after 200-fold dilution
Protocol: as §1

[18] = target: T14, human glycophorin A on human red blood …; assay: Fab on intact human RBC, unbound Fab by ELISA; 20 min after 200-fold dilution
Protocol: as §3

[19] = target: T14, human glycophorin A on human red blood …; assay: Fab on intact human RBC, unbound Fab by ELISA; 60 min after 200-fold dilution
[20] = target: T2, Cynomolgus monkey glycophorin A on …; assay: Fab 7 ug/ml on intact cyno RBC, unbound Fab by ELISA; pre-dilution
[21] = target: T2, Cynomolgus monkey glycophorin A on …; assay: Fab on intact cyno RBC, unbound Fab by ELISA; 5 min after 200-fold dilution
Protocol: as §1

[22] = target: T14, human glycophorin A on human red blood …; assay: Fab on intact human RBC, unbound Fab by ELISA; 120 min after 200-fold dilution
[23] = target: T14, human glycophorin A on human red blood …; assay: Fab on intact human RBC, unbound Fab by ELISA; 0 min after 200-fold dilution
[24] = target: T3, GP9 peptide of the human GPA ectodomain; assay: ELISA, Fab 0.05 ug/ml on biotin-peptide on streptavidin plate
Description: as §2

[25] = target: T4, GP8 peptide of the human GPA ectodomain; assay: as above
Description: as §2

[26] = target: T5, GP10 peptide of the human GPA ectodomain; assay: as above
Description: as §2

[27] = target: T6, GP15 peptide of the human GPA ectodomain; assay: as above
Description: as §2

[28] = target: T7, GP12 peptide of the human GPA ectodomain; assay: as above
Description: as §2

[29] = target: T8, GP11 peptide of the human GPA ectodomain; assay: as above
Description: as §2

[30] = target: T9, GP5 peptide of the human GPA ectodomain; assay: as above
Description: as §2

[31] = target: T10, GP14 peptide of the human GPA ectodomain; assay: as above
Description: as §2

[32] = target: T11, GP7 peptide of the human GPA ectodomain; assay: as above
Description: as §2

[33] = target: T12, GP16 peptide of the human GPA ectodomain; assay: as above
Description: as §2

[34] = target: T13, GP13 peptide of the human GPA ectodomain; assay: as above
Description: as §2

[35] = target: T14, human glycophorin A on human red blood …; assay: Fab on intact human RBC, unbound Fab by ELISA; 5 min after 200-fold dilution
Protocol: as §3

GP11 peptide = target: T15, GP11 peptide (human); assay: peptide ELISA, Fab
T15 peptide: Biotin-VYPPEEET
Description: as §2

GP10 peptide = target: T16, GP10 peptide (human); assay: peptide ELISA, Fab
T16 peptide: Biotin-TVYPPEEE
Description: as §2

GP7 peptide = target: T17, GP7 peptide (human); assay: peptide ELISA, Fab
T17 peptide: Biotin-SVRTVYPP
Description: as §2

GP15 peptide = target: T18, GP15 peptide (human); assay: peptide ELISA, Fab
T18 peptide: Biotin-EEETGERV
Description: as §2

GP13 peptide = target: T19, GP13 peptide (human); assay: peptide ELISA, Fab
T19 peptide: Biotin-PPEEETGE
Description: as §2

GP12 peptide = target: T20, GP12 peptide (human); assay: peptide ELISA, Fab
T20 peptide: Biotin-YPPEEETG
Description: as §2

GP16 peptide = target: T21, GP16 peptide (human); assay: peptide ELISA, Fab
T21 peptide: Biotin-EETGERVQ
Description: as §2

GP14 peptide = target: T22, GP14 peptide (human); assay: peptide ELISA, Fab
T22 peptide: Biotin-PEEETGER
Description: as §2

percentage of input antibody bound [2]: 93%
percentage of input antibody bound [3]: 92%
percentage of input antibody bound [4]: 89%
binding signal in ELISA (relative light units) [5]: 534 RLU
binding signal in ELISA (relative light units) [6]: 5130 RLU
binding signal in ELISA (relative light units) [7]: 71 RLU
binding signal in ELISA (relative light units) [8]: 0 RLU
binding signal in ELISA (relative light units) [9]: 0 RLU
binding signal in ELISA (relative light units) [10]: 2 RLU
binding signal in ELISA (relative light units) [11]: 7230 RLU
binding signal in ELISA (relative light units) [12]: 0 RLU
binding signal in ELISA (relative light units) [13]: 1 RLU
binding signal in ELISA (relative light units) [14]: 0 RLU
binding signal in ELISA (relative light units) [15]: 0 RLU
percentage of input antibody bound [16]: 98%
percentage of input antibody bound [17]: 96%
percentage of input antibody bound [18]: 96%
percentage of input antibody bound [19]: 97%
percentage of input antibody bound [20]: 92%
percentage of input antibody bound [21]: 94%
percentage of input antibody bound [22]: 96%
percentage of input antibody bound [23]: 97%
binding signal in ELISA (relative light units) [24]: 18 RLU
binding signal in ELISA (relative light units) [25]: 291 RLU
binding signal in ELISA (relative light units) [26]: 14 RLU
binding signal in ELISA (relative light units) [27]: -1 RLU
binding signal in ELISA (relative light units) [28]: -1 RLU
binding signal in ELISA (relative light units) [29]: 0 RLU
binding signal in ELISA (relative light units) [30]: 3500 RLU
binding signal in ELISA (relative light units) [31]: -1 RLU
binding signal in ELISA (relative light units) [32]: 0 RLU
binding signal in ELISA (relative light units) [33]: -1 RLU
binding signal in ELISA (relative light units) [34]: -1 RLU
percentage of input antibody bound [35]: 97%
B2: TPP-7792, affinity matured 6C12 Fab (Fab, V domains shown)
VH: EVQLVQSGAEVKKPGASVKVSCKASGYTFTTYAIHWVRQAPGQGLEWMGYINPSSGYTRYNPKFKGRVTMTRDKSTSTAYMELRSLRSDDTAVYYCWTGTRDYWGQGTTVTVSS
VL: DIQLTQSPSFLSASVGDRVTITCRASSSVRYIYWFQQKPGKAPKLLIYATSFRQSGVPSRFSGSGSGTEYTLTISSLQPEDFATYYCHQRNSFPYTFGQGTKLEIK
notes: Tested as Fab with a 6xHIS tag

binding result (GP11 peptide): no binding (tested: 0.5 ug/ml)
binding result (GP10 peptide): no binding (tested: 0.5 ug/ml)
binding result (GP7 peptide): no binding (tested: 0.5 ug/ml)
binding result (GP15 peptide): no binding (tested: 0.5 ug/ml)
binding result (GP13 peptide): no binding (tested: 0.5 ug/ml)
binding result (GP12 peptide): no binding (tested: 0.5 ug/ml)
binding result (GP16 peptide): no binding (tested: 0.5 ug/ml)
binding result (GP14 peptide): no binding (tested: 0.5 ug/ml)
B4: TPP-7790 Fab (Fab, V domains shown)
VH: EVQLVQSGAEVKKPGASVKVSCKASGYTFTTYAIHWVRQAPGQGLEWMGYINPSSGYTRYNPKFKHRVTMTRDKSTSTAYMELRSLRSDDTAVYYCWTGTRDYWGQGTTVTVSS
VL: DIQLTQSPSFLSASVGDRVTITCRASSSVRYIYWFQQKPGKAPKLLIYATSFLQSGVPSRFSGSGSGTEYTLTISSLQPEDFATYYCHQRNSFPYTFGQGTKLEIK
notes: as m92

Continued, binder first:

B1: TPP-5907 Fab (Fab, V domains shown)
VH: EVQLVQSGAEVKKPGASVKVSCKASGYTFTTYTIHWVRQAPGQGLEWMGYINPGSGYTRYNPKFKGRVTMTRDKSTSTAYMELRSLRSDDTAVYYCQTGTRDYWGQGTTVTVSS
VL: DIQLTQSPSFLSASVGDRVTITCRASSSVSYIYWFQQKPGKAPKLLIYATSTLQSGVPSRFSGSGSGTEYTLTISSLQPEDFATYYCHQRNSFPYTFGQGTKLEIKR
fold improvement of affinity against the parental antibody [1]: ~200 fold

B3: TPP-7792 Fab (Fab, V domains shown)
VH: EVQLVQSGAEVKKPGASVKVSCKASGYTFTTYAIHWVRQAPGQGLEWMGYINPSSGYTRYNPKFKGRVTMTRDKSTSTAYMELRSLRSDDTAVYYCWTGTRDYWGQGTTVTVSS
VL: DIQLTQSPSFLSASVGDRVTITCRASSSVRYIYWFQQKPGKAPKLLIYATSFRQSGVPSRFSGSGSGTEYTLTISSLQPEDFATYYCHQRNSFPYTFGQGTKLEIK
notes: as m92
binding result (GP11 peptide): no binding (tested: 0.5 ug/ml)
binding result (GP10 peptide): no binding (tested: 0.5 ug/ml)
binding result (GP7 peptide): no binding (tested: 0.5 ug/ml)
binding result (GP15 peptide): no binding (tested: 0.5 ug/ml)
binding result (GP13 peptide): no binding (tested: 0.5 ug/ml)
binding result (GP12 peptide): no binding (tested: 0.5 ug/ml)
binding result (GP16 peptide): no binding (tested: 0.5 ug/ml)
binding result (GP14 peptide): no binding (tested: 0.5 ug/ml)

— patent publication US20190359687A1 (Bayer, published 2019)
